Experimental data published in patent US9333268B2, “Methods of treatment with arginine deiminase” (Polaris Group, priority 2012, dated 2016).

Legend:
SK-LC-13 xenografts = assay: Large SK-LC-13 SCLC xenografts in BALB/c-nude mice; type: in vivo
Protocol: The activity of ADI-PEG 20 was also assessed in mice bearing ASS-positive NCI-H69 SCLC xenografts. Small cell lung cancer xenografts were established in female BALB/c-nude mice, 3-4 weeks of age weighing ˜20 g (Charles River Labs, Wilmington, Mass., USA). To establish the tumors, 10×10^6 cells in media were mixed 1:1 with Matrigel High Concentration (BD Biosciences) and injected subcutaneously in the abdominal area of the mice. Tumor growth was regularly measured and tumor volume calculated using the formula (TV=(length×width^2)/2). All animal studies were approved by the MSKCC Institutional Animal Care and Use Committee. Mice were euthanized when tumors reached an approximate volume of 1,000 mm^3.
The anti-tumor efficacy of ADI-PEG 20 was simultaneously assessed in mice bearing either moderate or large SK-LC-13 SCLC xenografts. In the first study, treatment was initiated once tumors had reached an average size of 125 mm^3. In the large xenograft study, treatment was initiated once tumors had reached an average size of 500 mm^3. Arginine deiminase-PEG20 was administered at doses of 1, 2 and 5 IU per animal once every 5 days for 20 days (five doses). To assess the effect of sustained dosing, further groups (n=5) at all dose levels received continued administration of ADI-PEG 20 every 5 days until tumors progressed to the 1,000 mm^3 size limit. Additionally, the efficacy of ADI-PEG 20 was assessed in mice bearing ASS-positive NCI-H69 xenografts. Here, mice received five doses of 2 IU ADI-PEG 20 for 20 days once tumor had reached an average size of 150 mm^3. Arginine deiminase-PEG20 was administered by intraperitoneal injection in all studies. The specific activity of ADI-PEG 20 used in these studies is 9 IU mg^−1 of protein. Thus, 1 IU of ADI-PEG 20 per 20 g mouse is equivalent to 160 IU m^−2.
Efficacy of ADI-PEG 20 treatment in vivo was assessed by comparing means of control and treatment groups using unpaired two-tailed t-tests at the termination of control groups using GraphPad Prism (Version 5.0, GraphPad Software Inc., La Jolla, Calif., USA).

[1] = in the mice; cited from earlier work
[2] = system: ASS high osteosarcoma cell line MG63; assay: Sarcoma cell line panel treated with ADI-PEG 20; type: cell-based

B1: ADI-PEG 20: arginine deiminase (ADI) formulated with PEG of 20,000 m.w. (protein)
chain: MSVFDSKFNGIHVYSEIGELETVLVHEPGREIDYITPARLDELLFSAILESHDARKEHQSFVKIMKDRGINVVELTDLVAETYDLASKAAKEEFIETFLEETVPVLTEANKEAVRAFLLSKPTHEMVEFMMSGITKYELGVESENELIVDPMPNLYFTRDPFASVGNGVTIHFMRYIVRRRETLFARFVFRNHPKLVKTPWYYDPAMKMSIEGGDVFIYNNETLVVGVSERTDLDTITLLAKNIKANKEVEFKRIVAINVPKWTNLMHLDTWLTMLDKNKFLYSPIANDVFKFWDYDLVNGGAEPQPQLNGLPLDKLLASIINKEPVLIPIGGAGATEMEIARETNFDGTNYLAIKPGLVIGYDRNEKTNAALKAAGITVLPFHGNQLSLGMGNARCMSMPLSRKDVKW
- tumor growth (SK-LC-13 xenografts; 1, 2 and 5 IU, tumors 473.4±161.0 mm^3 at start): dose-dependent inhibition of tumor growth
- tumor volume relative to control mice (SK-LC-13 xenografts; 1 IU, continued treatment, day 32 (P=0.007)): significantly reduce the tumor volume
- tumor volume, continued relative to short-course treatment (SK-LC-13 xenografts; 1 IU, day 39): moderately significant (P=0.26) reduction in tumor volume
- tumor size relative to control mice (SK-LC-13 xenografts; 1 IU, short-course, day 32 (P=0.07)): did not result in a statistical significant reduction
- tumor volume relative to untreated controls (SK-LC-13 xenografts; 2 IU, continued (P=0.0007)): significant reduction of tumor volume
- tumor volume relative to untreated controls (SK-LC-13 xenografts; 2 IU, short (P=0.004)): significant reduction of tumor volume
- responses, continued dosing relative to short-course (SK-LC-13 xenografts; 2 and 5 IU): did not significantly improve responses
- tumor volume relative to untreated controls (SK-LC-13 xenografts; 5 IU, continued (P=0.0001)): significant reduction of tumor volume
- tumor volume relative to untreated controls (SK-LC-13 xenografts; 5 IU, short (P=0.0003)): significant reduction of tumor volume
- half-life [1]: ~170 h
- cell division [2]: continued to divide
